Measurements published in the DeepSol protein solubility set.

Assay: soluble on expression in E. coli; label from the status in PepcDB or PDB records
In the case of “GKRKLATISTKGKVKDLTDTLVGSSIGRPYISGGFTASSEGYMAFTQGSSSRPADVAVINTRKKLVKLTQLNEDLLAHKNLGKVTEINYKSSFDDEPIQGWYVTPPNFDPKKKYPLILEIHGGPHLAYGPHFSAELQRFAAQGYVVFYDNHRGSSSYGERFAMLLKYKYSSKEDFADHNSGVDAMLGLGFIDEGNLFIAGGSAGGIATAYAIGLTDRFSAAVVVKPVINWLSKVLTADSGLGQIPTQFPGMPWEHVEHYWKRSPMSLVGNVTTPTMLMTGEEDLRTPMAQTEQFYQALKLRKIDTVLVKVPGSPHGIAGKPSRMITKIEHTLAWFEKYKT”, the “soluble on expression in E. coli” value was “not soluble”. For “MGSDKIHHHHHHMSPRPKQLSLELGSPPPSTFDNFVVASNREAVQRLHDLPSAVAQERAIDRLFYLWGENGCGRTHLLHAVCEATPQTGINCRYLSPHHPLSDFLFDPSCQLYTVDDVELLDEARQIAVFSLYNEVRAHVRTALVVAGGMAPRAMPVREDLRTRLGWGLVYQVQPLSDEDKMSAVLQAARERGLQLSPEITHWLVTRHYRDMPSLMALLDALDTYSLERKRPVTLPLLREMFAEFRE”, the “soluble on expression in E. coli” value was “not soluble”. In the case of “MSNYWLNIYKPRGISSAQLVSIVKKILGKTKIGHAGTLDVEAEGILPFAVGEATKLIHLLVDARKTYIFTVKFGMQTNSGDCAGKVIATKDCIPSQEEAYAVCSKFIGNVTQIPPAFSALKVNGVRAYKLAREGKKVELKPRNITIYDLKCLNFDEKNATATYYTECSKGTYIRTLAEDLALSLQSLGFVIELRRTQVGIFKEENAIRIKSPDEITKNALEENSIKIEAILDDILVLDATDSQAQQIKYGQKCLFNYEKDFRHLAKFAYREEFKGNTERNTTAYTLVREDASTGLTYKLPLEVEFGKMSVDLLWVRYKGTLLAIGSLNKSCFNSLRVFNLTQDFF”, the “soluble on expression in E. coli” value was “not soluble”. For “MGSDKIHHHHHHMFSARLKAIAQPVLADIENHPFVRGIQAGAVPAAALMVYVEQDTCFLDAFAKVYAGALSKCTTKDQMRFFEEQIRYTLNDEAGAHQILCDIAGQKLSDHQHAKQRPITYLYNEHLFNALRTGDLIDLIAAMLPCPWTYTEISQQIVDGAAPDNPFLPWIEFYQPQPGQIDGSMVKTLFGMVDELAIGLSEERQHEIEQRFLRSCELEYEFWEQAYYQKDWKYKN”, the “soluble on expression in E. coli” value was “not soluble”. With “MGSDKIHHHHHHMKKYFPSSELIINEDGSVFHLHVKPEWLADKVILVGDPGRVALVASHFENKECEVESREFKTITGTYKGKRITVVSTGIGCDNIDIVMNELDALANINFETREEKEKFRQLELVRIGTCGGLQPNTPVGTFVCSQKSIGFDGLLNFYAGRNAVCDLPFERAFLNHMGWSGNMCAPAPYVIDASEELIDRIAKEDMVRGVTIAAGGFFGPQGRELRIPLADPKQNDKIEAFEYKGFKITNFEMESSALAGLSRLMGHKAMTVCMVIANRLIKEANTGYKNTIDTLIKTVLDRI” the “soluble on expression in E. coli” value was “not soluble”. With “MSLKVLLLDVDGTLLSFETHKVSQSSIDALKKVHDSGIKIVIATGRAASDLHEIDAVPYDGVIALNGAECVLRDGSVIRKVAIPAQDFRKSMELAREFDFAVALELNEGVFVNRLTPTVEQIAGIVEHPVPPVVDIEEMFERKECCQLCFYFDEEAEQKVMPLLSGLSATRWHPLFADVNVAGTSKATGLSLFADYYRVKVSEIMACGDGGNDIPMLKAAGIGVAMGNASEKVQSVADFVTDTVDNSGLYKALKHFGVIEGHHHHHH” the “soluble on expression in E. coli” value was “soluble”. For “GPGSMSAEAVADLERRAAAAETAIGELSLRLQTMGSSVGAGIEPRLRELLKLMHEDRAEFEAVRAQRDELKEENERLKIQVAKHEYRIKHLLRTIEEISPEENS”, the “soluble on expression in E. coli” value was “soluble”. With “MAHHHHHHMDGGVVKTILRKGEGGEENAPKKGNEVTVHYVGKLESSGKVFDSSRERNVPFKFHLGQGEVIKGWDICVASMTKNEKCSVRLDSKYGYGEEGCGESIPGNSVLIFEIELISFREAKKSIYDYTNEEKIQAAFDLKEEGNDFFKKNEIDEAISKYKEALDLFIHAEDWDGDLAEKKKNIEIICNLNLSTCYNKSKDFPNAIAHASKVLKIEKNNVKALYKLGVANMHFGFLEVAKENLYKAASLSPNNVEIRNSYDACLSKLKEARKRDKLTFGGMFDKGI” the “soluble on expression in E. coli” value was “not soluble”. In the case of “MNTKCLREKIEKIKPHLLKTASDTLQGYVFGCMIGVFSSSEKPSLRHVHESGKSFAKVSMIYSTTESALQLYGSKNAPLNSLISGAVAGGLGVNDRSKKSILTGAASFGLYTGMSNIFSVQGQK”, the “soluble on expression in E. coli” value was “not soluble”. In the case of “MKVELVFIPSPGVGHIRATTALAKLLVASDNRLSVTLIVIPSRVSDDASSSVYTNSEDRLRYILLPARDQTTDLVSYIDSQKPQVRAVVSKVAGDVSTRSDSRLAGIVVDMFCTSMIDIADEFNLSAYIFYTSNASYLGLQFHVQSLYDEKELDVSEFKDTEMKFDVPTLTQPFPAKCLPSVMLNKKWFPYVLGRARSFRATKGILVNSVADMEPQALSFFSGGNGNTNIPPVYAVGPIMDLESSGDEEKRKEILHWLKEQPTKSVVFLCFGSMGGFSEEQAREIAVALERSGHRFLWSLRRASPVGNKSNPPPGEFTNLEEILPKGFLDRTVEIGKIISWAPQVDVLNSPAIGAFVTHCGWNSILESLWFGVPMAAWPIYAEQQFNAFHMVDELGLAAEVKKEYRRDFLVEEPEIVTADEIERGIKCAMEQDSKMRKRVMEMKDKLHVALVDGGSSNCALKKFVQDVVDNVP”, the “soluble on expression in E. coli” value was “soluble”. With “MGSDKIHHHHHHMRLGFYNIQGGTGKTTIAANIGYYLSDKTKTVYVDCDIYAGCGALLFGFEDSPHTLNSYLSGASALTDIIHQFDDLSVIVADSTPNSFNTEINQKRMLELIRVLNDNYDIVLLDLPPNITEGNLLFSSLNLEEKVVNKMIVVAEDSIPGIANTMKTKELLYAIDIDCIGVIVNKFKDTVDFDEALDDIIAILPYDKKVENQWMENVPAVQMKSKFSKELSYLAEDLAEVYIKKDLAAVRALKVAKELKDMTSKRQDVEEDEF” the “soluble on expression in E. coli” value was “not soluble”. In the case of “MKTKIIGVLGLGIFGQTLAQELSNFEQDVIAIDSNPENVQAVAEVVTKAAIGDITDLAFLKHIGISDCDTVIIATGNSLESSVLAVMHCKKLGVPQVIAKARNLVYEEVLYEIGADLVISPERESGQNVAANLMRNKITDVFQIESDISVIEFKIPKSWVGKTVEQLNIRHKFDLNLIGIRKAKNKPVDTEVPINSPLEEGIILVAIANSDAFQRYDYLGYFNLEHHHHHH”, the “soluble on expression in E. coli” value was “soluble”. For “GPGSMLRNTDVRLFSTFALNPETSVAPHGPPRGLVNRYVSMGLPPWAAWCNKVNRYSLYRMSGVTQRSFLPKPPQEMDVIWLNERVRERVRTSRQVQNVYRQLKYPYVKTGIHYSDVLDHWVQVPMVEAAMFEVEKDGGFDNFILKRSGPELRSTYGERIRRHILVRQKEIQKNFVLQKQAQMLVESMEKEILPMEDGKKVEEVLEKYGIDKEQLLRDIARAAVAKKQQLASAVPQPSHVEVSTN”, the “soluble on expression in E. coli” value was “not soluble”. In the case of “MSSYFPVYLDLKDKEVLVIGGGRVATRKVKTLLEFTKNITIVSPKVTEELKNLIKEKKIKWIDRKFKPSDLKDKFLVVVAVDDIKLQKRVFNLCEKRGILCNSVDSPKYCNFIFPSIIKRGDLVISISTSGKVPALSRALREKIEECLPENIEEIMKELEIIRKSEEKGEERQKKLLRLARELLKNFLEHHHHHH”, the “soluble on expression in E. coli” value was “soluble”. For “MMDEKLNFSYLFGSNAPYIEELYEAFLENPDAVDEKWKQYFTDLSKQPGTVAVDVAHTPIRESFVTLAKKKIASAVAGGADEAMLKKQVSVLRLISAYRIQGVGAAQLDPLKRIPPRDIEALDPKFHGLSDADMALQFNMGEGDFANRGKLPLSQIISNLKQTYCGHIALEYIYIPNTEERRWVRNYFESVLSTPHYNADQKRRILKEMTAAETLERYLHTKYVGQKRFGVEGGESAIAGLNYLIQNAGKDGVEEVIIGMAHRGRLNVLVNILGKKPGDLFAEFEGRAEIKLPSGDVKYHMGFSSDIATPHGPMHVSLAFNPSHLEIVNPVVEGSARAKQKRLGENGRDKVLPVLIHGDSAFIGLGVNQATFNLSKTRGYTTGGTVHIVINNQIGFTTSDIRDTRSTVHCTDIAKMVSAPVIHVNGDDPERVCFAIQAALDYRKKFHKDIVIDVVCYRKWGHNEGDDPTLTQPMMYKKVSQHPGARALYTEQLIAEGVVTQAEADGYIQAYRDALDKGEHVEQTTLSNFQRTQIDWSKYQGKDWREHIETGLPAADIERLTEKFTAVPEGFALHPTAKRVIEARKAMASGKQAIDWGMAETLAYASLVTKGHGVRISGEDSGRGTFSHRHAVLHDQKREKWDDGTYVPLRHMGEGMGEFLVIDSILNEEAVMAFEYGFACSAPDKLTIWEAQFGDFANGAQVTIDQFLSSGETKWGRLCGLTTILPHGYDGQGPEHSSARVERWLQLCSENNMQVIMPSEASQMFHLLQRQVLGSYRKPLVIFMSKRLLRFKGAMSPLENFTEGSTFRPVIGDTAERASNDSVKRVVLCAGQVYYDLEAGRAERKLEDDVAIVRVEQLYPFPYDEVKAELAKYPNAKSVVWAQEEPKNQGAFYQIRHRIEDVISEEQKLSYAGRPSSASPAVGYSSKHIAQLKQLVEDALAL”, the “soluble on expression in E. coli” value was “not soluble”. In the case of “MSTSAGSSGAAASEPTTAKSLTYSETMNDLRKGSLFGRQKESLATTDGGPQPSSLDDKSQQFKNPIESDKPGPSTEPGRSAKIEQEAPAPTLKKSETPPAFGLSGVVKKVPSVYFPIFNKLGVKIPGFLPSLRETKINAPHIVYDVRRLRLLQKRQRPIKQLWLRLQFQLRFQMQLLKAQTKSSRVPDNASAVMWLHYIEVIEDHCTADC”, the “soluble on expression in E. coli” value was “not soluble”. In the case of “MGSDKIHHHHHHLISTANITMQFGPEPLFENISAQFGHGNRYGLIGANGCGKSTFMKILSGALAPTSGNVSITPGLKVGNLSQDQFAFEQHSVIDTVIMGDMKLWKVKQEREAIYAKPDMTDEDGMRVGDLESEFAEMDGYSAESRAGEILIEAGIDESMHFGLMQQVPPGKKLRVLLAQALFANPDILLLDEPTNNLDIHTISWLETELNKRKCTMIIISHDRHFLNAVCTHMADIDYGELRIYPGNYEFFLAQSSLIREQLLAGNAKKSAEIDELQDFVNRFGANASKAKQASSRAKKMDKIKLDDVKSSSRITPSIRFEAGKKMHRQALILEGLGHGFDEGMLFTGGDLILEAGAKLAIIGENGVGKTTLLRCLVNELSHKEGVVKWSENAAVGYCPQDSSADFDNDLTLMDWMSQWRLPKHNDLMVRGMLGRLLFTEDDANKKARNCSGGEKNRLLFGKLMMQDVNVLIMDEPTNHMDMEAIEALNNALKDFEGTLIFVSHDREFVSSLATRVIDIKDKKLINFQGSFDEYLASQSEAQKIA”, the “soluble on expression in E. coli” value was “not soluble”. With “METSPVFIDYVTIRQEYFGGGLPVLNDGKVLKVDADGEIEYSTDVRCIIEGSYDSRVQVRCDGNTVEFTGNISRYGRRDNLFGYDWPTTIARINDLLSLLGLPPFTSGKLYKFADTGWSWSGARVSRIDLTCNYSTGSKESMHAVLCHMAGQHVGRQKGSLSPDSGTVEYGRGSKYVYGKLYAKYQELEKHRSKKSGSHVSDDVIDYCKTEGILREEFTLKSRFLLQNNLAYLGAITQDNLNQILEHHHHHH” the “soluble on expression in E. coli” value was “not soluble”. With “MGSDKIHHHHHHENLYFQGMKIALIIENSQAAKNAVVHEALTTVAEPLGHKVFNYGMYTAEDKASLTYVMNGLLAGILLNSGAADFVVTGCGTGMGSMLAANAMPGVFCGLVIDPTDAFLFGQINDGNAISMPYSKGFGWAAELNLQDVYRKLFDGERGLGYPRERAEIMRKNRGILRELKDASCRDMLTVLKTVDQDLLRAAIAGEKFAELFYPNCKDDAIANYLRSLDA” the “soluble on expression in E. coli” value was “soluble”.
